# Assay results as given in patent US20100297623A1 (COUNCIL OF THE QUEENSLAND INSTITUTE OF MEDICAL RESEARCH, published 2010).
# B1: human ssDNA binding protein 1 (hSSB1) (other)
# chain: MTTETFVKDIKPGLKNLNLIFIVLETGRVTKTKDGHEVRTCKVADKTGSINISVWDDVGNLIQPGDIIRLTKGYASVFKGCLTLYTGRGGDLQKIGEFCMVYSEVPNFSEPNPEYSTQQAPNKAVQNDSNPSASQPTTGPSAASPASENQNGNGLSAPPGPGGGPHPPHTPSHPPSTRITRSQPNHTPAGPPGPSSNPVSNGKETRRSSKR
# notes: also called human SSB1
# Biological target: the molecule itself
# Assay: gel filtration (self-association)
protein,measurement,value
B1,binding result,binds
